Experimental data published in PMC10761944, “Modular assembly of an artificially concise biocatalytic cascade for the manufacture of phenethylisoquinoline alkaloids” (Nature Communications, 2024).

Experiments:
CNMT = target: T1, CNMT (Coptis japonica, UniProt Q948P7); experiment: product titer by HPLC, coupled to RnCOMT; assay type: biochemical; settings: SAM; (S)-1c formed in situ from 2 mM (S)-1b; HEPES pH 7.5, 30 °C, 4 h
T1 construct: codon-optimised synthetic gene, E. coli BL21(DE3), Ni-NTA purified

RnCOMT = target: T2, RnCOMT (Rattus norvegicus, UniProt P22734); experiment: conversion by HPLC; assay type: biochemical; settings: 4 mM SAM, 10 mM MgCl2, HEPES pH 7.5, 30 °C, 2 h
T2 construct: gene Comt; codon-optimised synthetic gene, E. coli BL21(DE3), Ni-NTA purified
T2 sequence (P22734 1-264): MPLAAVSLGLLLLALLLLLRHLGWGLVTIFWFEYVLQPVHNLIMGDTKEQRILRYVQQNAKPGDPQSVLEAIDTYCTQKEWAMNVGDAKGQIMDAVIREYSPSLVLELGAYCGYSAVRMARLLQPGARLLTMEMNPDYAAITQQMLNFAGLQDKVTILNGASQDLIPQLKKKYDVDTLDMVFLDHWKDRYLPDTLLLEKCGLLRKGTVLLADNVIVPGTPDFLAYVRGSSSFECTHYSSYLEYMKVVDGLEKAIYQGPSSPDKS

[1] = tested on: COc1cc(CC[C@@H]2NCCc3cc(O)c(O)cc32)cc(O)c1OC; experiment: initial rates by HPLC, Michaelis-Menten fit; assay type: biochemical, Gloriosa superba; settings: SAM as methyl donor, 200 mM potassium phosphate pH 7.5, 30 °C
TfNCS = target: T3, TfNCS (Thalictrum flavum, UniProt C3SBV6); experiment: product by HPLC, coupled to TpCAR; assay type: biochemical; settings: 1a formed in situ from 1 by TpCAR; co-substrate dopamine; HEPES pH 7.5, 30 °C
T3 construct: codon-optimised synthetic gene, E. coli BL21(DE3), Ni-NTA purified

Compound | Km [1] [µM] | kcat [1] [s⁻¹] | further results
COc1cc2c(cc1O)[C@H](CCc1cc(OC)c(OC)c(OC)c1)NCC2 [(S)-1c] | – | – | product titer by HPLC, coupled to RnCOMT (CNMT): CNMT showed a very weak catalytic activity towards (S)−1c
COc1cc(CC[C@@H]2NCCc3cc(O)c(O)cc32)cc(OC)c1OC [(S)-1b] | – | – | conversion by HPLC (RnCOMT): the enzymatic activity of RnCOMT towards (S)−1b was much better than that of GsOMT1
GsOMT1 (Gloriosa superba) | 630 ± 50 | 4.56 ± 0.24 | –
GsOMT1 (Gloriosa superba; V125Q) | 330 ± 20 | 8.65 ± 0.26 | –
COc1cc(CCC=O)cc(OC)c1OC [1a] | – | – | product by HPLC, coupled to TpCAR (TfNCS): (S)−1b was efficiently synthesized without the accumulation of intermediate 1a
